Literature values as cited in PMC10910070.

System: gliadin (wheat, commercial mixture) (wheat)
Experiment: not stated (cited value)
Details: 5 mM Tris pH 7.4, 25 C; 300 uL AuNPs + 200 uL 40 nM aptamer + 200 uL gliadin, then 200 uL NaCl (40 mM in Methods, 37 mM in Fig. 2 legend), 900 uL final

Row | Sequence | Kd [nM]
1 | CTACACATGTCTGAATGCC [Apt-2] | 148
2 | CCAGTCTCCCGTTTACCGCGCCTACACATGTCTGAATGCC [Apt-1] | 186
